Test results as given in patent publication US5574016A, “Peptide compound and a process for the preparation thereof” (Fujisawa Pharmaceutical Co., Ltd., priority 1991, dated 1996).

Tested on: thrombosis model in Guinea-pig (FeCl3 carotid artery thrombosis)
Test: Enhancement of thrombolytic activity of TPA in thrombosis model in Guinea-pig
Assay type: in vivo, Male Hartley guinea-pigs
Conditions: Group 1 (5 animals): saline and r-TPA 0.30 mg/kg i.v. bolus +1.0 mg/kg/hour i.v. infusion; reperfusion = 50 % recovery of carotid blood flow velocity; recorded up to 90 minutes
Source text: Male Hartley guinea-pigs (500-800 g) were anesthetized with urethane (1.25 g/kg i.p.). The carotid artery and cervical vein were carefully exposed after a midline cervical insision. The vein was cannulated with a polyethylene catheter (PE50; Becton Dikinson, U.S.A.) for the injection and infusion of the drug. A pulse Dopplar flow probe was placed around the carotid artery to record the blood flow velocity to moniter thrombus formation and thrombolysis. Carotid artery thrombosis was induced by the FeCl3 method as follows;
a square (1 mm×1 mm) of ADVANTEC No. 2 filter paper immersed in 20% FeCl3 was placed on the carotid artery which became occluded by a thrombus.
When the blood flow velocity decreased to zero, the filter paper was removed from the vessel and the carotid artery were washed with saline more than 4 times. The test compound or saline was injected 3 minutes after the washing and 3 minutes later r-TPA [Actilyse (trademark); Boehringer Ingelheim Ltd] was infused for 60 minutes.
The animals were divided into the following groups;
Group 1 (5 animals): Saline and r-TPA at 0.30 mg/kg i.v. bolus +1.0 mg/kg/hour i.v. infusion […]
The reperfusion was defined as 50 % recovery of carotid artery blood flow velocity compared with the initial value. The blood flow was recorded up to 90 minutes.

B1: r-TPA: r-TPA [Actilyse (trademark); Boehringer Ingelheim Ltd], tissue plasminogen activator, infused for 60 minutes (protein, UniProt P00750 36-562, looked up)
Tissue-type plasminogen …: SYQVICRDEKTQMIYQQHQSWLRPVLRSNRVEYCWCNSGRAQCHSVPVKSCSEPRCFNGGTCQQALYFSDFVCQCPEGFAGKCCEIDTRATCYEDQGISYRGTWSTAESGAECTNWNSSALAQKPYSGRRPDAIRLGLGNHNYCRNPDRDSKPWCYVFKAGKYSSEFCSTPACSEGNSDCYFGNGSAYRGTHSLTESGASCLPWNSMILIGKVYTAQNPSAQALGLGKHNYCRNPDGDAKPWCHVLKNRRLTWEYCDVPSCSTCGLRQYSQPQFRIKGGLFADIASHPWQAAIFAKHRRSPGERFLCGGILISSCWILSAAHCFQERFPPHHLTVILGRTYRVVPGEEEQKFEVEKYIVHKEFDDDTYDNDIALLQLKSDSSRCAQESSVVRTVCLPPADLQLPDWTECELSGYGKHEALSPFYSERLKEAHVRLYPSSRCTSQHLLNRTVTDNMLCAGDTRSGGPQANLHDACQGDSGGPLVCLNDGRMTLVGIISWGLGCGQKDVPGVYTKVTNYLDWIRDNMRP
With B1 as the molecule, how does the “number of animals in which reperfusion was observed” value read?
Its value is 1.
